The structures appear in SMILES notation.

The nature of this series: Radiochemical purity (RCP) of the Drug Substance 72 hours from end of synthesis. Format: physicochemical. Particulars: radiochemical purity 72 hours from end of synthesis; reaction time 5 min; reactor temperature 80 or 100 °C by batch. As for the experimental part: The reaction temperature has been tested between 80° C. and 100° C. for labeling times of 5 minutes.

As to `C[C@@H](O)[C@H](NC(=O)[C@@H]1CSSC[C@H](NC(=O)[C@@H](Cc2ccccc2)NC(=O)CN2CCN(CC(=O)[O-])CCN(CC(=O)[O-])CCN(CC(=O)[O-])CC2)C(=O)N[C@@H](Cc2ccc(O)cc2)C(=O)N[C@H](Cc2c[nH]c3ccccc23)C(=O)N[C@@H](CCCCN)C(=O)N[C@@H]([C@@H](C)O)C(=O)N1)C(=O)O.[177Lu+3]` [LT141013B-03, ^177Lu-DOTA0-Tyr^3-Octreotate], the “RCP (%) t72 h” value came to 95.9%.

Consider `C[C@@H](O)[C@H](NC(=O)[C@@H]1CSSC[C@H](NC(=O)[C@@H](Cc2ccccc2)NC(=O)CN2CCN(CC(=O)[O-])CCN(CC(=O)[O-])CCN(CC(=O)[O-])CC2)C(=O)N[C@@H](Cc2ccc(O)cc2)C(=O)N[C@H](Cc2c[nH]c3ccccc23)C(=O)N[C@@H](CCCCN)C(=O)N[C@@H]([C@@H](C)O)C(=O)N1)C(=O)O.[177Lu+3]` [LT141013C-03, ^177Lu-DOTA0-Tyr^3-Octreotate], for which the “RCP (%) t72 h” value was determined as 95.8%.

The values above are taken from US20200131224A1, “Methods for Synthesis of Radionuclide Complex” (Advanced Accelerator Applications (Italy) S.R.L., priority 2018, published 2020).
